Data taken from publication PMC10202812, “Resilience to autosomal dominant Alzheimer’s disease in a Reelin-COLBOS heterozygous man” (Nature Medicine, 2023).

Target: T1, neuropilin 1 (NRP1) (UniProt O14786 22-856, biotinylated at a 1:2 molar ratio)
T1 construct: neuropilin 1 (NRP1), recombinant, R&D Systems catalog no; 3870-N1-025; source: bought: R&D Systems (catalog no. 3870-N1-025)
T1 sequence (looked up): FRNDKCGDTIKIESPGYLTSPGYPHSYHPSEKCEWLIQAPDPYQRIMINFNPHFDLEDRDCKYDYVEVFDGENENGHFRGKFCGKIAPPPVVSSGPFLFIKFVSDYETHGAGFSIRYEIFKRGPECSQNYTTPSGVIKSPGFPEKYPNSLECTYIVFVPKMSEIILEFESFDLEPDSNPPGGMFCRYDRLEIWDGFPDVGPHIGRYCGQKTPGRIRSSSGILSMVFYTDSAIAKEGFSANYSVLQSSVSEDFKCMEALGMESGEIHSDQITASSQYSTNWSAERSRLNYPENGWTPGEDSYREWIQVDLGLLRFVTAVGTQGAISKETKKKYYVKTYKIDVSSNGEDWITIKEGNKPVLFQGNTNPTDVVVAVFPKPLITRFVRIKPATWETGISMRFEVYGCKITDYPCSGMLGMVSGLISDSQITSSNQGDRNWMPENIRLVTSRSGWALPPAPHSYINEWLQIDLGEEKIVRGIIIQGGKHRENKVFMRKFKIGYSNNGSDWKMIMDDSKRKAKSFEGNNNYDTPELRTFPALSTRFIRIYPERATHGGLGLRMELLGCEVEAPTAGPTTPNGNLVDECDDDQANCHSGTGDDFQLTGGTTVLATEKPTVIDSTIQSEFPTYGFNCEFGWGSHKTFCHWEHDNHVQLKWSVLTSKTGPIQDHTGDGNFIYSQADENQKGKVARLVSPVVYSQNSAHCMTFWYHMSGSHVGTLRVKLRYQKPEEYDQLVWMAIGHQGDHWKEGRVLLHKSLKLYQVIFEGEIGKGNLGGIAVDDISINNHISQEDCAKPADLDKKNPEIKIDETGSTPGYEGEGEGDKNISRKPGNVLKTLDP
Assay: BLI; biotinylated NRP1 immobilised on streptavidin biosensor tips (Octet); 30 °C, 1,000 rpm; 240 s association, 300 s dissociation; SD Buffer (PBS, 0.05% Tween 20, 0.01% BSA, pH 7.4); 1:1 binding model, global fitting
Conditions: both partners purified

B1: Fc-fusion CTR-RELN H3447R (CTR-RELN-COLBOS) (Fc fusion, human, UniProt P78509 3429-3460, looked up)
chain: STRKQNYMMNFSRQHGLRRFYNRRRRSLRRYP
notes: Reelin (RELN), C-terminal region, amino acids 3,429-3,460 (numbers of the 3,460-residue human protein), with the natural variant H3447R (COLBOS); source: DNA encoding amino acids 3,429-3,460 of RELN-CTR cloned into the pFUSEN-hG2Fc plasmid (InvivoGen)
  fold affinity against WT CTR-RELN: 10 fold
